Measurements: paper PMC4489804

Molecular target: DCP1-CFP (Arabidopsis thaliana) (UniProt Q9SJF3)
Assay: FRET or BRET; FRET acceptor photobleaching in transiently transfected Arabidopsis leaf epidermis cells; DCP1-CFP donor, YFP-gSPI or free YFP acceptor, 35S promoter; whole cells and stationary P-bodies measured

UniProt Q9SJF3, sequence (Q9SJF3 whole entry): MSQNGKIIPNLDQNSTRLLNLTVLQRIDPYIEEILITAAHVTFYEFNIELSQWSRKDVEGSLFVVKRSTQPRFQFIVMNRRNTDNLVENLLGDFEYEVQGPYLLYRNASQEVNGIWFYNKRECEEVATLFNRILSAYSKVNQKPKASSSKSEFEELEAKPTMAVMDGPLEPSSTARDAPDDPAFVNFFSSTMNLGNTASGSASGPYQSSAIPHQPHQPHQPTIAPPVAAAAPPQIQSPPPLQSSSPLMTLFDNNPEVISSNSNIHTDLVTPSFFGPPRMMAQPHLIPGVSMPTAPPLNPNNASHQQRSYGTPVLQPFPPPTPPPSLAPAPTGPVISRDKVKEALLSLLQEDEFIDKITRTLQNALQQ

Q: Which results are given for “YFP-tagged full-length genomic SPI, F4HZB2 1-3601”?
A: FRET efficiency (FRETE), immobile P-bodies: 23%; FRET efficiency (FRETE), whole cells: 27%
